The text below walks through data of patent US20190389955A1 (HEMOGENYX PHARMACEUTICALS, published 2019).

Changes are numbered by the printed parent chain. In names and notes the source's numbering stands.

T1: FLT3/FLK2 antigen (as used for Table 6) (human, UniProt P36888 27-541, limits assumed)
T1 construct: also called human FLT3/FLK2 receptor protein
T1 sequence (looked up): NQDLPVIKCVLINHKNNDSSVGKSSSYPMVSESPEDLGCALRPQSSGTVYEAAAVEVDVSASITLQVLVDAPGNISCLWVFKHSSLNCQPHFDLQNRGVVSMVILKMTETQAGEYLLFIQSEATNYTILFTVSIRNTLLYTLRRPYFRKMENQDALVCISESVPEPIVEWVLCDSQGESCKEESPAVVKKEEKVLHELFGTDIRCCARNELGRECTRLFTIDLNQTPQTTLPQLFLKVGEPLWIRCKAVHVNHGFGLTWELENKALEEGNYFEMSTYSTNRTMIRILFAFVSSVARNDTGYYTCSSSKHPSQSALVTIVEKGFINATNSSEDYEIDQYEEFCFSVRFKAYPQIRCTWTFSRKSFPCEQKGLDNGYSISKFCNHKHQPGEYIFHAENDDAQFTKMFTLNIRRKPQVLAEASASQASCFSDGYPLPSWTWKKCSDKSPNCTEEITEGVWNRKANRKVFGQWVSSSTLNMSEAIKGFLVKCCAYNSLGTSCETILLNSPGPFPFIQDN

T2: human FLT3/FLK2 receptor protein (human, UniProt P36888 27-993)
T2 construct: whole, on cells; Cell-surface target in the flow cytometry experiments (REH cells and SP2/0-Hu-FLT3 cells); also called CD135; Hu-FLT3
T2 sequence (looked up): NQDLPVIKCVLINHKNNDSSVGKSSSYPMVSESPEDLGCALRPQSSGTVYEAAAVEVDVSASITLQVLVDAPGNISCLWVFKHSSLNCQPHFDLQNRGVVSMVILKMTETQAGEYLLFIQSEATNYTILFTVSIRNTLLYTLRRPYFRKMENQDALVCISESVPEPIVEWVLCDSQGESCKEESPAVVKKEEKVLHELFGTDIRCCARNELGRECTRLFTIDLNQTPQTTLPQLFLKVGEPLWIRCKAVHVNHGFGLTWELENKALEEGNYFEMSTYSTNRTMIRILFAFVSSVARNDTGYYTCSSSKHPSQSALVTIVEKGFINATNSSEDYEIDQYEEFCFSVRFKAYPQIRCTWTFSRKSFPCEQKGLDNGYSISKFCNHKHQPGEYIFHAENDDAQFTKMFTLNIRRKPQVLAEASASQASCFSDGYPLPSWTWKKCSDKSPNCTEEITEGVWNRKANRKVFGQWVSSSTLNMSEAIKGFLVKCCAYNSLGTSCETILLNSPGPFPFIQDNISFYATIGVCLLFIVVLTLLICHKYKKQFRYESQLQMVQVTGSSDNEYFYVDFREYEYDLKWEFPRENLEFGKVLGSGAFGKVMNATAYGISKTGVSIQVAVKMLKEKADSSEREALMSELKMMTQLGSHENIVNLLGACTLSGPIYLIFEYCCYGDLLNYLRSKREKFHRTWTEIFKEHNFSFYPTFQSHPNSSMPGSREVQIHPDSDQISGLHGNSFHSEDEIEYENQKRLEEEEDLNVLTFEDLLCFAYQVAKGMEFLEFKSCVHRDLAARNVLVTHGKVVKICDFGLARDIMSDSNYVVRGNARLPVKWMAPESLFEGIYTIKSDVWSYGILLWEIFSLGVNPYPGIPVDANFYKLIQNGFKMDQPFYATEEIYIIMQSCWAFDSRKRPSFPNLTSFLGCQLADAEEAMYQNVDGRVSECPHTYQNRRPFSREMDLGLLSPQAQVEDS

B1: MHC1694-1-18BA (antibody, V domains shown)
VH: QVTLKESGPGILQPSQTLSLTCSFSGFSLSTSTMGVGWIRQPSGKGLEWLLHILWNDSKYYNPALKSRLTISKDTYNKQVFLKIANVDTADTATYYCARIVYYSTYVGYFDVWGAGTTVTVSS
VL: DIQMTQSPSSLSASLGERVSLTCRASQEISGYLSWLQQKPDGTIKRLIYAASTLHSGVPKRFSGSRSGSDYSLTISRLESEDVADYYCLQYASYPFTFGSGTKLEIR
notes: Mouse hybridoma monoclonal antibody; also called Ab1-18New
B2: MHC1696-2-8IA (antibody, V domains shown)
VH: EIQLQQSGPELVKPGASVKVSCKASGYSFIDYNMYWVKQSHGKSLEWIGYINPYNGGTSNNQKFKDKATLTVDKSSSTAFMHLNSLTSEDSAVYYCARGTTGDYWGQGTTLTVSS
VL: DTVLTQSPATLSVTPGDSVSLSCRASQSISNNLHWYQQKSHESPRLLIKYGFQSISGIPSRFSGSGSGTDFTLRINSVETEDFGMYFCQQTNSWPLTFGAGTKLELK
notes: Mouse hybridoma monoclonal antibody; also called A281A
B3: MHC1695-3-30A (antibody, V domains shown)
VH: QVTLKESGPGILQPSQTLSLTCSFSGFSLSTSHMGVGWIRQPSGKGLEWLLHILWNDSVYYNPALKSRLTISKDTYNKQVFLKIANVDTADTATYYCARIVYYGISYVGYFDVWGAGTTVTVSS
VL: B1 VL with H55N, K60R, R77S, V83F, R107K
notes: Mouse hybridoma monoclonal antibody
B4: MHC1692-1-23DA (antibody, V domains shown)
VH: B1 VH
VL: B1 VL
notes: Mouse hybridoma monoclonal antibody (detected with anti-mouse IgG); also called Ab1-23DA
B5: MHC1693-3-16HA (antibody, V domains shown)
VH: EVQLQQSGAELVRPGALVKLSCKGSGFNIKDYYIHWVKQRPEQGLEWIGRIDPENDITMYDPKFQGKASITADTSSNTAYLQLSSLTSEDTAVYYCARNGNFFAYWGQGTLVTVSA
VL: not shown
notes: Mouse hybridoma monoclonal antibody; also called Ab3-16HA

One assay addresses T1, FLT3/FLK2 antigen (as used for Table 6). As to the kind of experiment: kinetic fit, method not stated (Table 6).
Regarding B1, the Kd came to 0.00576 nM, the koff was found to be 1.42e-05 s⁻¹ and the kon was found to be 2.46e+06 M⁻¹ s⁻¹.

Consider B2, for which binding was characterised by a dissociation constant (Kd) of 0.0503 nM, the koff stood at 0.000111 s⁻¹ and the kon was found to be 2.21e+06 M⁻¹ s⁻¹.

The next assay addresses T2, human FLT3/FLK2 receptor protein. As to the kind of experiment: flow cytometry titration on REH cells; axis printed 'mg/ml', the text gives ng/ml. The protocol:
(§1) Specificity of the monoclonal antibodies was determined by evaluating their affinity to the FLT3/FLK2 antigen. To define affinity of the anti-human FLT3/FLK2 antibodies, an Effective Concentration (EC) curve was built using flow cytometry. Nine monoclonal antibody clones were used to stain human REH cells that endogenously express human FLT3/FLK2. The concentration of the clones ranged from 1 ng/ml (6.25 pM) to 10,000 ng/ml (62.5 nM). […] The sequences of the clones are shown below.
On to B3, for which the “EC50 (read off the curve)” value is approximately 1 µg/mL.

As to B4, the “EC50 (read off the curve)” value was approximately 0.06 µg/mL.

On to B1, for which the “EC50 (read off the curve)” value was approximately 0.08 µg/mL.

B2: the “EC50 (read off the curve)” value is approximately 0.1 µg/mL.

The target is the same in a further assay. As to the kind of experiment: flow cytometry, hybridoma supernatant on REH cells; same table: unstained 1292, secondary Ab alone 6905 (0.78%), isotype 13307 (12%).
Consider B5, for which the “% POSITIVE CELLS” value worked out at 57% and the “MFI (IgC FITC)” value amounted to 15200.

As to B3, the “% POSITIVE CELLS” value came to 48% and the “MFI (IgC FITC)” value was found to be 13000.

For B4, the “% POSITIVE CELLS” value amounted to 49% and the “MFI (IgC FITC)” value stood at 13300.

On to B1, for which the “% POSITIVE CELLS” value was determined as 58% and the “MFI (IgC FITC)” value came out at 14700.

In the case of B2, the “% POSITIVE CELLS” value was 30% and the “MFI (IgC FITC)” value was found to be 11000.

A further assay has the same target. As to the kind of experiment: flow cytometry, purified antibody on SP2/0 cells expressing human FLT3/FLK2; same table: unstained 6063, secondary Ab 9522, isotype 11518.
With B5, the MFI came to 206000.

For B3, the MFI was 151000.

The molecule B4 showed an MFI of 119000.

Turning to B2, the MFI is 128000.

A further assay has the same target. As to the kind of experiment: flow cytometry titration on REH cells, MFI against antibody concentration; the box prints no unit, the axis is printed 'mg/ml', the text gives ng/ml. The protocol: as §1
Take B4: the EC50 was found to be 0.0701 µg/mL.

For the molecule B2, the EC50 amounted to 0.0902 µg/mL.

A further assay shares this target. As to the kind of experiment: flow cytometry titration on REH cells, MFI against antibody concentration; the box prints no unit, the axis is printed 'mg/ml', the text gives ng/ml; clone taken from the legend paragraph 65 (FIG. 5E: Ab1-18New). The protocol:
as §1
As for B1, the EC50 is 0.0788 µg/mL.
